Among the data in PMC7343719, “Immobilization of the Highly Active UDP-Glucose Pyrophosphorylase From Thermocrispum agreste Provides a Highly Efficient Biocatalyst for the Production of UDP-Glucose” (Frontiers in Bioengineering and Biotechnology, 2020) are stoichiometry N values, retold here.

The experiment deals with UDP-glucose pyrophosphorylase from Thermocrispum agreste DSM 44070 (TaGalU) (Thermocrispum agreste DSM 44070). As to the kind of experiment: SEC; Superdex 200 10/300 GL 24 mL column, non-denaturing, 50 mM Hepes pH 7.0, 1 mM MgCl2; calibrated with protein standards. In general terms: In gel filtration, larger molecules generally elute earlier.

As a reminder, the stoichiometry N is a count of units in the complex or per binding partner. Take “UDP-glucose pyrophosphorylase from Thermocrispum agreste DSM 44070 (TaGalU) (enzyme)”: the stoichiometry N stood at 6.
